What was measured:
HeLa Kyoto [1] = test: solubility in G1/S (NP-40 vs SDS abundance) (log2 ratio); higher = more soluble; settings: cell cycle stage: G1/S
HeLa Kyoto [2] = test: solubility change mitosis vs G1/S (difference of NP-40 vs SDS log2 ratios) (log2 ratio difference); higher = more soluble in mitosis
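Wherever solubility change mitosis vs G1/S (difference of NP-40 vs SDS log2 ratios) is given: synchronized HeLa Kyoto cells (double thymidine block for G1/S, nocodazole release for mitosis), protein amounts in NP-40 versus SDS lysates quantified by mass spectrometry, three biological replicates.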
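Wherever solubility in G1/S (NP-40 vs SDS abundance) is given: HeLa Kyoto cells arrested at G1/S by double thymidine block, proteins quantified by TMT10plex mass spectrometry in mild NP-40 versus SDS extracts, three biological replicates.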

MKPVHERSQECLPPKKRDLPVTSEDMGRTTSCSTNHTPSSDASEWSRGVVVAGQSQAGARVSLGGDGAEAITGLTVDQYGMLYKVAVPPATFSPTGLPSVVNMSPLPPTFNVASSLIQHPGIHYPPLHYAQLPSTSLQFIGSPYSLPYAVPPNFLPSPLLSPSANLATSHLPHFVPYASLLAEGATPPPQAPSPAHSFNKAPSATSPSGQLPHHSSTQPLDLAPGRMPIYYQMSRLPAGYTLHETPPAGASPVLTPQESQSALEAAAANGGQRPRERNLVRRESEALDSPNSKGEGQGLVPVVECVVDGQLFSGSQTPRVEVAAPAHRGTPDTDLEVQRVVGALASQDYRVVAAQRKEEPSPLNLSHHTPDHQGEGRGSARNPAELAEKSQARGFYPQSHQEPVKHRPLPKAMVVANGNLVPTGTDSGLLPVGSEILVASSLDVQARATFPDKEPTPPPITSSHLPSHFMKGAIIQLATGELKRVEDLQTQDFVRSAEVSGGLKIDSSTVVDIQESQWPGFVMLHFVVGEQQSKVSIEVPPEHPFFVYGQGWSSCSPGRTTQLFSLPCHRLQVGDVCISISLQSLNSNSVSQASCAPPSQLGPPRERPERTVLGSRELCDSEGKSQPAGEGSRVVEPSQPESGAQACWPAPSFQRYSMQGEEARAALLRPSFIPQEVKLSIEGRSNAGK [ATXN1L]
solubility in G1/S (log2) (HeLa Kyoto [1]): 0.172
solubility change mitosis (log2) (HeLa Kyoto [2]): -0.12

MKQLPAATVRLLSSSQIITSVVSVVKELIENSLDAGATSVDVKLENYGFDKIEVRDNGEGIKAVDAPVMAMKYYTSKINSHEDLENLTTYGFRGEALGSICCIAEVLITTRTAADNFSTQYVLDGSGHILSQKPSHLGQGTTVTALRLFKNLPVRKQFYSTAKKCKDEIKKIQDLLMSFGILKPDLRIVFVHNKAVIWQKSRVSDHKMALMSVLGTAVMNNMESFQYHSEESQIYLSGFLPKCDADHSFTSLSTPERSFIFINSRPVHQKDILKLIRHHYNLKCLKESTRLYPVFFLKIDVPTADVDVNLTPDKSQVLLQNKESVLIALENLMTTCYGPLPSTNSYENNKTDVSAADIVLSKTAETDVLFNKVESSGKNYSNVDTSVIPFQNDMHNDESGKNTDDCLNHQISIGDFGYGHCSSEISNIDKNTKNAFQDISMSNVSWENSQTEYSKTCFISSVKHTQSENGNKDHIDESGENEEEAGLENSSEISADEWSRGNILKNSVGENIEPVKILVPEKSLPCKVSNNNYPIPEQMNLNEDSCNKKSNVIDNKSGKVTAYDLLSNRVIKKPMSASALFVQDHRPQFLIENPKTSLEDATLQIEELWKTLSEEEKLKYEEKATKDLERYNSQMKRAIEQESQMSLKDGRKKIKPTSAWNLAQKHKLKTSLSNQPKLDELLQSQIEKRRSQNIKMVQIPFSMKNLKINFKKQNKVDLEEKDEPCLIHNLRFPDAWLMTSKTEVMLLNPYRVEEALLFKRLLENHKLPAEPLEKPIMLTESLFNGSHYLDVLYKMTADDQRYSGSTYLSDPRLTANGFKIKLIPGVSITENYLEIEGMANCLPFYGVADLKEILNAILNRNAKEVYECRPRKVISYLEGEAVRLSRQLPMYLSKEDIQDIIYRMKHQFGNEIKECVHGRPFFHHLTYLPETT [PMS1]
solubility in G1/S (log2) (HeLa Kyoto [1]): -0.0908
solubility change mitosis (log2) (HeLa Kyoto [2]): -0.108

MLARALLLCAVLALSHTANPCCSHPCQNRGVCMSVGFDQYKCDCTRTGFYGENCSTPEFLTRIKLFLKPTPNTVHYILTHFKGFWNVVNNIPFLRNAIMSYVLTSRSHLIDSPPTYNADYGYKSWEAFSNLSYYTRALPPVPDDCPTPLGVKGKKQLPDSNEIVEKLLLRRKFIPDPQGSNMMFAFFAQHFTHQFFKTDHKRGPAFTNGLGHGVDLNHIYGETLARQRKLRLFKDGKMKYQIIDGEMYPPTVKDTQAEMIYPPQVPEHLRFAVGQEVFGLVPGLMMYATIWLREHNRVCDVLKQEHPEWGDEQLFQTSRLILIGETIKIVIEDYVQHLSGYHFKLKFDPELLFNKQFQYQNRIAAEFNTLYHWHPLLPDTFQIHDQKYNYQQFIYNNSILLEHGITQFVESFTRQIAGRVAGGRNVPPAVQKVSQASIDQSRQMKYQSFNEYRKRFMLKPYESFEELTGEKEMSAELEALYGDIDAVELYPALLVEKPRPDAIFGETMVEVGAPFSLKGLMGNVICSPAYWKPSTFGGEVGFQIINTASIQSLICNNVKGCPFTSFSVPDPELIKTVTINASSSRSGLDDINPTVLLKERSTEL [PTGS2]
solubility in G1/S (log2) (HeLa Kyoto [1]): 0.069
solubility change mitosis (log2) (HeLa Kyoto [2]): -0.117

MLGQQQQQLYSSAALLTGERSRLLTCYVQDYLECVESLPHDMQRNVSVLRELDNKYQETLKEIDDVYEKYKKEDDLNQKKRLQQLLQRALINSQELGDEKIQIVTQMLELVENRARQMELHSQCFQDPAESERASDKAKMDSSQPERSSRRPRRQRTSESRDLCHMANGIEDCDDQPPKEKKSKSAKKKKRSKAKQEREASPVEFAIDPNEPTYCLCNQVSYGEMIGCDNEQCPIEWFHFSCVSLTYKPKGKWYCPKCRGDNEKTMDKSTEKTKKDRRSR [ING2]
solubility in G1/S (log2) (HeLa Kyoto [1]): -0.404
solubility change mitosis (log2) (HeLa Kyoto [2]): 0.625

MLQSLAGSSCVRLVERHRSAWCFGFLVLGYLLYLVFGAVVFSSVELPYEDLLRQELRKLKRRFLEEHECLSEQQLEQFLGRVLEASNYGVSVLSNASGNWNWDFTSALFFASTVLSTTGYGHTVPLSDGGKAFCIIYSVIGIPFTLLFLTAVVQRITVHVTRRPVLYFHIRWGFSKQVVAIVHAVLLGFVTVSCFFFIPAAVFSVLEDDWNFLESFYFCFISLSTIGLGDYVPGEGYNQKFRELYKIGITCYLLLGLIAMLVVLETFCELHELKKFRKMFYVKKDKDEDQVHIIEHDQLSFSSITDQAAGMKEDQKQNEPFVATQSSACVDGPANH [KCNK1]
solubility in G1/S (log2) (HeLa Kyoto [1]): -0.169
solubility change mitosis (log2) (HeLa Kyoto [2]): -0.0475

MLRLLASGCARGPGPGVGARPAAGLFHPGRRQSRQASDAPRNQPPSPEFVARPVGVCSMMRLPVQTSPEGLDAAFIGVPLDTGTSNRPGARFGPRRIREESVMLGTVNPSTGALPFQSLMVADLGDVNVNLYNLQDSCRRIQEAYEKIVAAGCIPLTLGGDHTITYPILQAMAKKHGPVGLLHVDAHTDTTDKALGEKLYHGAPFRRCVDEGLLDCKRVVQIGIRGSSTTLDPYRYNRSQGFRVVLAEDCWMKSLVPLMGEVRQQMGGKPIYISFDIDALDPAYAPGTGTPEIAGLTPSQALEIIRGCQGLNVMGCDLVEVSPPYDLSGNTALLAANLLFEMLCALPKVTTV [AGMAT]
solubility in G1/S (log2) (HeLa Kyoto [1]): 0.243
solubility change mitosis (log2) (HeLa Kyoto [2]): 0.0673

MLRLQMTDGHISCTAVEFSYMSKISLNTPPGTKVKLSGIVDIKNGFLLLNDSNTTVLGGEVEHLIEKWELQRSLSKHNRSNIGTEGGPPPFVPFGQKCVSHVQVDSRELDRRKTLQVTMPVKPTNDNDEFEKQRTAAIAEVAKSKETKTFGGGGGGARSNLNMNAAGNRNREVLQKEKSTKSEGKHEGVYRELVDEKALKHITEMGFSKEASRQALMDNGNNLEAALNVLLTSNKQKPVMGPPLRGRGKGRGRIRSEDEEDLGNARPSAPSTLFDFLESKMGTLNVEEPKSQPQQLHQGQYRSSNTEQNGVKDNNHLRHPPRNDTRQPRNEKPPRFQRDSQNSKSVLEGSGLPRNRGSERPSTSSVSEVWAEDRIKCDRPYSRYDRTKDTSYPLGSQHSDGAFKKRDNSMQSRSGKGPSFAEAKENPLPQGSVDYNNQKRGKRESQTSIPDYFYDRKSQTINNEAFSGIKIEKHFNVNTDYQNPVRSNSFIGVPNGEVEMPLKGRRIGPIKPAGPVTAVPCDDKIFYNSGPKRRSGPIKPEKILESSIPMEYAKMWKPGDECFALYWEDNKFYRAEVEALHSSGMTAVVKFIDYGNYEEVLLSNIKPIQTEAWEEEGTYDQTLEFRRGGDGQPRRSTRPTQQFYQPPRARN [TDRD3]
solubility in G1/S (log2) (HeLa Kyoto [1]): -0.658
solubility change mitosis (log2) (HeLa Kyoto [2]): 0.149

Source: the supplement of paper PMC5998384
